Measurements taken from patent US11266715B2, “C3A receptor agonists for use against ischemic brain injury, stroke, traumatic brain injury, spinal cord injury and neurodegenerative disorders” (priority 2016, dated 2022).

Assay: In vivo epifluorescent imaging of labelled C3a after intranasal administration
Design: species or system mouse
Experimental: C3a (Complement Technologies) was labelled with VivoTag XL 680 fluorescent tag (Perkin Elmer) and purified according to manufacturer's instructions. A minimum of 10 μg of labelled C3a (0.4 mg/kg of body weight) was determined in a pilot experiment to be necessary for reliable detection of the fluorescent signal in live animals due to its significant attenuation by skull bones. Mice received 20 μl of PBS or 65 μM C3a-VivoTag (0.48 mg/kg of body weight) intranasally as described above. One and three hours later, mice were anesthetized with 2% isoflurane and imaged in the IVIS Lumina III Bio-imaging platform (Caliper Technologies). After imaging, mice were deeply anesthetized with isoflurane and killed by cervical dislocation for ex vivo imaging. Brains were quickly dissected from the skull and imaged using the same fluorescent filter sets. All mice and brains were imaged simultaneously with the PBS-treated control (acting as the tissue autofluorescence reference) placed in the middle, to minimize the potential confound of weaker illumination toward the sides of the observation field. Acquired images were processed and analysed using Living Image software (Caliper Technologies). Epifluorescent signal intensities are presented as radiant efficiency [(photons/sec/cm^2/sr)/(μW/cm^2)] after subtraction of the residual tissue autofluorescence signal defined by the PBS control.

fluorescently labelled C3a: C3a (Complement Technologies) labelled with VivoTag XL 680 fluorescent tag
time C3a is detectable in brain tissue after intranasal administration (20 μl of 65 μM C3a-VivoTag (0.48 mg/kg) intranasal, imaged at 1 and 3 h, live and ex vivo): at least 3 hours
delivery to the brain by intranasal administration (epifluorescent imaging in live animals): can be delivered to the mouse brain through intranasal administration
